Earlier results on one substance are cited in publication PMC10303925.

One data set concerns the target SLP2-A (Homo sapiens) (UniProt Q9HCH5).
The next data set addresses MLPH (Homo sapiens) (UniProt Q9BV36).

pKd: −log10 of the molar value.

Chain of UniProt Q9HCH5 (Q9HCH5 whole entry): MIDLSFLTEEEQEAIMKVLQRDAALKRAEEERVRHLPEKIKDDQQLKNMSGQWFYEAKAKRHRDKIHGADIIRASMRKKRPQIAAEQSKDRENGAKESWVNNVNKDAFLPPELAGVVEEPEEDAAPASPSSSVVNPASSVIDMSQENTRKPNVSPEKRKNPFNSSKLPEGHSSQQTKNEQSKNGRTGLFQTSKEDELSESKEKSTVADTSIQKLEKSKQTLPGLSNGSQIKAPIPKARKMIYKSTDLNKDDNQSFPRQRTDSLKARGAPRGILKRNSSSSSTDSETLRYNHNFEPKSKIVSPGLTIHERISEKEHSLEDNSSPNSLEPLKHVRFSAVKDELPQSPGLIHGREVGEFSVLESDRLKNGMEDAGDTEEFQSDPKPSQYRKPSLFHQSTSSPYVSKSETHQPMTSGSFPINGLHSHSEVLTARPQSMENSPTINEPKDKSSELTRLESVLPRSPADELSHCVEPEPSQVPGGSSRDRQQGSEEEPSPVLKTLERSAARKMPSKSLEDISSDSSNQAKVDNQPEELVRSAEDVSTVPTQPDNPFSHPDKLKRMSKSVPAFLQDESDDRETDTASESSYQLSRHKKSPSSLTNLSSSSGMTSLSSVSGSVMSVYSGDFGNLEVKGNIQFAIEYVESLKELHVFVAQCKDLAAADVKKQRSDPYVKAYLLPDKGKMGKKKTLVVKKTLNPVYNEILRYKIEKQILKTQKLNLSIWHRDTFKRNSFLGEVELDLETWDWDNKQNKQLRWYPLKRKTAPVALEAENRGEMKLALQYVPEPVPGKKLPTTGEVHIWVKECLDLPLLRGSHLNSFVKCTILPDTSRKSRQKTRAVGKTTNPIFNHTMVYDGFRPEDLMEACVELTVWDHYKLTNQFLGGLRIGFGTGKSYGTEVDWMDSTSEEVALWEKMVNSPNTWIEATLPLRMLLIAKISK
Chain of UniProt Q9BV36 (Q9BV36 whole entry): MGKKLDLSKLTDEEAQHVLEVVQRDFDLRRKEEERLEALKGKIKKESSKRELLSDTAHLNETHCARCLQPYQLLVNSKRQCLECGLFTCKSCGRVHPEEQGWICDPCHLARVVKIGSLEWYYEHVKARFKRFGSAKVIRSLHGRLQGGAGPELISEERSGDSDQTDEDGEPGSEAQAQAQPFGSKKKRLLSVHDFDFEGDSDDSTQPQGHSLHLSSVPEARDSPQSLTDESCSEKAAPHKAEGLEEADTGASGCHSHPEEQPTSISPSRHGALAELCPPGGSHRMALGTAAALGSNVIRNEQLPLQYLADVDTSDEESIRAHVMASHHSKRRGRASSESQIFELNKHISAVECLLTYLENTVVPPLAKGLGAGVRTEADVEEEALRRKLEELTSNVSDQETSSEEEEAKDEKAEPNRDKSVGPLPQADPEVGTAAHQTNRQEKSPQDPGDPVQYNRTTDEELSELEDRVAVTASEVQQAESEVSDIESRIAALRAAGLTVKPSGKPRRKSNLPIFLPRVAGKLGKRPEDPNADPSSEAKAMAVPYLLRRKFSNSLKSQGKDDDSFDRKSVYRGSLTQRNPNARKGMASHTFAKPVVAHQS

What is called pKd is the Kd on a negative log10 scale, so that one unit is a factor of ten. RAB27A (from UniProt P51159): the pKd with SLP2-A (Homo sapiens) is 7.70; in the data set with MLPH (Homo sapiens), 6.70.
